Test results taken from patent US20150125444A1 (AstraZeneca / MedImmune, published 2015).

T1: Human FcγRIIb extracellular domain (human, UniProt P31994 43-217)
T1 construct: extracellular domain
T1 sequence (looked up): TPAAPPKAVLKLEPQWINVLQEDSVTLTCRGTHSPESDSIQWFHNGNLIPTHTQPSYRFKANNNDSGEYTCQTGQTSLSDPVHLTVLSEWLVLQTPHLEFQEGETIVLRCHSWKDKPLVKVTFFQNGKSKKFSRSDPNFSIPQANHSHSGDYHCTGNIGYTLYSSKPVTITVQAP

T2: Human FcγRIIa extracellular domain (human, UniProt P12318 34-217)
T2 construct: extracellular domain
T2 sequence (looked up): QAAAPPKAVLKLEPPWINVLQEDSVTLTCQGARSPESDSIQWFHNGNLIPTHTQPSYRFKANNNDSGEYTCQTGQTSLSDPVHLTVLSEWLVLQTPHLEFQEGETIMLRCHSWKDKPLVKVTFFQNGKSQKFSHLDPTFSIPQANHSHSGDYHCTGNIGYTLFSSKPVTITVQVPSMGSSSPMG


Experiments:
Assay in all cases: SPR (ProteOn XPR36), antibody immobilised, steady state, pH 7.4
[1] = molecular target: T3, Human C1q (human, UniProt P02745 23-245; P02746 28-253; P02747 29-245)
T3 construct: Bought complement protein; In the CDC assay C1q came with human serum
T3 sequence (P02745 23-245 limits assumed, chain 1 of 3): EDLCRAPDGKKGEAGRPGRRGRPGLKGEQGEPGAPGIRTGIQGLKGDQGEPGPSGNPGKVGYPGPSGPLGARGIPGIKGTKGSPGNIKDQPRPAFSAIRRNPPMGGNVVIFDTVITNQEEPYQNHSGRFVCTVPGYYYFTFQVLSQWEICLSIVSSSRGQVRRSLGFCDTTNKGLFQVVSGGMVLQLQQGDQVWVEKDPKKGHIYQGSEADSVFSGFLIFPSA
T3 sequence (P02746 28-253 limits assumed, chain 2 of 3): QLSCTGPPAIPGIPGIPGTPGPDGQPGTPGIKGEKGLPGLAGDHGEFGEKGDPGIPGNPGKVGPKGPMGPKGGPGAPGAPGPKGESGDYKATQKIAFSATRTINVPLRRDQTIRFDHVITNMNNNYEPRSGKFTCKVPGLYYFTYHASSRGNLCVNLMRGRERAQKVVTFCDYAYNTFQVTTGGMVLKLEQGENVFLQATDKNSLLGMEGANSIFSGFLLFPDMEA
T3 sequence (P02747 29-245 limits assumed, chain 3 of 3): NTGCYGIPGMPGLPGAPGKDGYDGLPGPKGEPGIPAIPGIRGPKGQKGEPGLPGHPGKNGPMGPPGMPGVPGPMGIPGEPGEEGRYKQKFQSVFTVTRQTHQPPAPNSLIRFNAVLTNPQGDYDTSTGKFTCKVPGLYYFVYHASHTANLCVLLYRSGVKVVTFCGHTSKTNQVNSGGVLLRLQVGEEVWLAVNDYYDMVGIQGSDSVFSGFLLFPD
Protocol: (§1) Experiments were performed using the ProteOn XPR36 surface plasmon resonance system (Bio Rad). Phosphate buffered saline with 0.005% Tween 20 (PBS/Tween), pH 7.4 was used as running buffer for most experiments with the exception of Human FcRn (extracellular domain) binding in which Phosphate buffered saline with 0.005% Tween 20 (PBS/Tween), pH 6.0 was used. All experiments were performed at 25° C. Antibodies were immobilized on a ProteOn™ GLC Sensor Chip (#176-5011) using EDAC (1-Ethyl-3-[3-dimethylaminopropyl]carbodiimide) and sulfo-NHS (N-hydroxysulfosuccinimide) to an R.U. (response unit) level of 4000-6000. C1q, FcγRI, FcγRIIa, FcγRIIb, FcγRIII(158V), FcγRIII(158F), and FcRn were then flowed over the IgG immobilized surface at various concentrations at a rate of 25 μl/minute for a long enough period of time to achieve steady state, or near steady state. Binding (if any could be determined) was quantified via steady state equilibrium binding analysis using the ProteOn software. Human FcγRI, FcγRIIa, FcγRIIb, FcγRIII(158V), FcγRIII(158F), and FcRn extracellular domains were generated via mammalian expression vectors in house. Human C1q was obtained from Quidel (CA).

[2] = molecular target: T4, Human FcγRIIIa (158F) extracellular domain (human, UniProt P08637 17-208)
T4 construct: extracellular domain; also called FcγRIII(158F)
T4 sequence (P08637 17-208): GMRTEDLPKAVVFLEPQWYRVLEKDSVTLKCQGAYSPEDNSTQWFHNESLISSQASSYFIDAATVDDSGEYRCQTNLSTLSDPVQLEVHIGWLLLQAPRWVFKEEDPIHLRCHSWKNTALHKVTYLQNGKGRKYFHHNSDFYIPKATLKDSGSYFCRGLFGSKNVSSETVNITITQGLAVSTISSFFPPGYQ
Protocol: as §1

[3] = molecular target: T5, Human FcγRIa extracellular domain (human, UniProt P12314 16-292)
T5 construct: extracellular domain
T5 sequence (P12314 16-292): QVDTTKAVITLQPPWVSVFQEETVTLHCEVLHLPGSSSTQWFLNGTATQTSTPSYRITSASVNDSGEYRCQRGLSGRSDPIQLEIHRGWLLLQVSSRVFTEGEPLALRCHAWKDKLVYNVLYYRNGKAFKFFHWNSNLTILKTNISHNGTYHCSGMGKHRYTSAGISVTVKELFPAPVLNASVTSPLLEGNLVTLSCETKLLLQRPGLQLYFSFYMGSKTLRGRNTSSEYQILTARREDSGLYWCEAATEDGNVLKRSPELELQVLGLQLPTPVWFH
Protocol: as §1

[4] = molecular target: T1, Human FcγRIIb extracellular domain
Protocol: as §1

[5] = molecular target: T6, Human FcγRIIIa (158V) extracellular domain (human, UniProt P08637 17-208)
T6 construct: extracellular domain; Position 158 is the usual allotype numbering (mature protein), not the precursor numbering of the database entry; also called FcγRIII(158V)
T6 sequence (P08637 17-208 F176V): as the sequence (P08637 17-208) above, with F160V counted along it
Protocol: as §1

[6] = molecular target: T2, Human FcγRIIa extracellular domain
Protocol: as §1

Row | binding result [1] | binding result [2] | binding result [3] | binding result [4] | binding result [5] | binding result [6] | Kd [1] | Binder
1 | no binding | no binding | no binding | no binding | no binding | no binding | – | Ab3 (anti-CD20 antibody HB20.3) with FAQ-YTE variant IgG1 Fc domain (antibody, Full IgG1; also called Ab3 FAQ-YTE; YTE-FAQ) heavy: QVQLQQPGAELVKPGASVKMSCKASGFTFTNYNMHWLKQTPGQGLEWIGAIYPENGDTSYNQKFKGKATLTADKASSTAYMHLSSLTSEDSAVYFCARFYYYGSYYGAMDYWGQGTSVTVSSASTKGPSVFPLAPSSKSTSGGTAALGCLVKDYFPEPVTVSWNSGALTSGVHTFPAVLQSSGLYSLSSVVTVPSSSLGTQTYICNVNHKPSNTKVDKRVEPKSCDKTHTCPPCPAPEFAGGPSVFLFPPKPKDTLYITREPEVTCVVVDVSHEDPEVKFNWYVDGVEVHNAKTKPREEQYNSTYRVVSVLTVLHQDWLNGKEYKCQVSNKALPAPIEKTISKAKGQPREPQVYTLPPSREEMTKNQVSLTCLVKGFYPSDIAVEWESNGQPENNYKTTPPVLDSDGSFFLYSKLTVDKSRWQQGNVFSCSVMHEALHNHYTQKSLSLSPGK light: DIQMTQSPASLSASVGETVTITCRASGNIHNYLAWYQQKQGKSPQLLVYNAKTLADGVPSRFSGSGSGTQFSLKINSLQPEDFGSYYCQHFWSTPWTFGGGTKLEIKRTVAAPSVFIFPPSDEQLKSGTASVVCLLNNFYPREAKVQWKVDNALQSGNSQESVTEQDSKDSTYSLSSTLTLSKADYEKHKVYACEVTHQGLSSPVTKSFNRGEC
2 | – | – | – | – | – | – | 360 nM | Ab3 (anti-CD20 antibody HB20.3) with FE-YTE variant IgG1 Fc domain (antibody, Full IgG1; also called Ab3 FE-YTE; YTE-FE) heavy: QVQLQQPGAELVKPGASVKMSCKASGFTFTNYNMHWLKQTPGQGLEWIGAIYPENGDTSYNQKFKGKATLTADKASSTAYMHLSSLTSEDSAVYFCARFYYYGSYYGAMDYWGQGTSVTVSSASTKGPSVFPLAPSSKSTSGGTAALGCLVKDYFPEPVTVSWNSGALTSGVHTFPAVLQSSGLYSLSSVVTVPSSSLGTQTYICNVNHKPSNTKVDKRVEPKSCDKTHTCPPCPAPEFEGGPSVFLFPPKPKDTLYITREPEVTCVVVDVSHEDPEVKFNWYVDGVEVHNAKTKPREEQYNSTYRVVSVLTVLHQDWLNGKEYKCKVSNKALPAPIEKTISKAKGQPREPQVYTLPPSREEMTKNQVSLTCLVKGFYPSDIAVEWESNGQPENNYKTTPPVLDSDGSFFLYSKLTVDKSRWQQGNVFSCSVMHEALHNHYTQKSLSLSPGK light: DIQMTQSPASLSASVGETVTITCRASGNIHNYLAWYQQKQGKSPQLLVYNAKTLADGVPSRFSGSGSGTQFSLKINSLQPEDFGSYYCQHFWSTPWTFGGGTKLEIKRTVAAPSVFIFPPSDEQLKSGTASVVCLLNNFYPREAKVQWKVDNALQSGNSQESVTEQDSKDSTYSLSSTLTLSKADYEKHKVYACEVTHQGLSSPVTKSFNRGEC
3 | no binding | no binding | no binding | no binding | no binding | no binding | – | Ab3 (anti-CD20 antibody HB20.3) with FQG-YTE variant IgG1 Fc domain (antibody, Full IgG1; also called Ab3 FQG-YTE; YTE-FQG) heavy: QVQLQQPGAELVKPGASVKMSCKASGFTFTNYNMHWLKQTPGQGLEWIGAIYPENGDTSYNQKFKGKATLTADKASSTAYMHLSSLTSEDSAVYFCARFYYYGSYYGAMDYWGQGTSVTVSSASTKGPSVFPLAPSSKSTSGGTAALGCLVKDYFPEPVTVSWNSGALTSGVHTFPAVLQSSGLYSLSSVVTVPSSSLGTQTYICNVNHKPSNTKVDKRVEPKSCDKTHTCPPCPAPEFQGGPSVFLFPPKPKDTLYITREPEVTCVVVDVSHEDPEVKFNWYVDGVEVHNAKTKPREEQYNSTYRVVSVLTVLHQDWLNGKEYKCKVSNKALPAGIEKTISKAKGQPREPQVYTLPPSREEMTKNQVSLTCLVKGFYPSDIAVEWESNGQPENNYKTTPPVLDSDGSFFLYSKLTVDKSRWQQGNVFSCSVMHEALHNHYTQKSLSLSPGK light: DIQMTQSPASLSASVGETVTITCRASGNIHNYLAWYQQKQGKSPQLLVYNAKTLADGVPSRFSGSGSGTQFSLKINSLQPEDFGSYYCQHFWSTPWTFGGGTKLEIKRTVAAPSVFIFPPSDEQLKSGTASVVCLLNNFYPREAKVQWKVDNALQSGNSQESVTEQDSKDSTYSLSSTLTLSKADYEKHKVYACEVTHQGLSSPVTKSFNRGEC
4 | no binding | no binding | no binding | no binding | no binding | no binding | – | Ab3 (anti-CD20 antibody HB20.3) with FQQ-YTE variant IgG1 Fc domain (antibody, Full IgG1; also called Ab3 FQQ-YTE; YTE-FQQ) heavy: QVQLQQPGAELVKPGASVKMSCKASGFTFTNYNMHWLKQTPGQGLEWIGAIYPENGDTSYNQKFKGKATLTADKASSTAYMHLSSLTSEDSAVYFCARFYYYGSYYGAMDYWGQGTSVTVSSASTKGPSVFPLAPSSKSTSGGTAALGCLVKDYFPEPVTVSWNSGALTSGVHTFPAVLQSSGLYSLSSVVTVPSSSLGTQTYICNVNHKPSNTKVDKRVEPKSCDKTHTCPPCPAPEFQGGPSVFLFPPKPKDTLYITREPEVTCVVVDVSHEDPEVKFNWYVDGVEVHNAKTKPREEQYNSTYRVVSVLTVLHQDWLNGKEYKCQVSNKALPAPIEKTISKAKGQPREPQVYTLPPSREEMTKNQVSLTCLVKGFYPSDIAVEWESNGQPENNYKTTPPVLDSDGSFFLYSKLTVDKSRWQQGNVFSCSVMHEALHNHYTQKSLSLSPGK light: DIQMTQSPASLSASVGETVTITCRASGNIHNYLAWYQQKQGKSPQLLVYNAKTLADGVPSRFSGSGSGTQFSLKINSLQPEDFGSYYCQHFWSTPWTFGGGTKLEIKRTVAAPSVFIFPPSDEQLKSGTASVVCLLNNFYPREAKVQWKVDNALQSGNSQESVTEQDSKDSTYSLSSTLTLSKADYEKHKVYACEVTHQGLSSPVTKSFNRGEC
5 | binds | – | – | – | – | – | – | Ab4 (anti-C5a antibody 1B8) with FE-YTE variant IgG1 Fc domain (antibody, Full IgG1; also called Ab4 FE-YTE) heavy: EVQLLESGGGLVQPGGSLRLSCAASGFTFSSYVMNWVRQAPGKGLEWVSSISPSGGRTWYADSVKGRFTISRDNSKNTLYLQMNSLRAEDTAVYYCARSDGSAAGFLGYWGQGTLVTVSSASTKGPSVFPLAPSSKSTSGGTAALGCLVKDYFPEPVTVSWNSGALTSGVHTFPAVLQSSGLYSLSSVVTVPSSSLGTQTYICNVNHKPSNTKVDKRVEPKSCDKTHTCPPCPAPEFEGGPSVFLFPPKPKDTLYITREPEVTCVVVDVSHEDPEVKFNWYVDGVEVHNAKTKPREEQYNSTYRVVSVLTVLHQDWLNGKEYKCKVSNKALPAPIEKTISKAKGQPREPQVYTLPPSREEMTKNQVSLTCLVKGFYPSDIAVEWESNGQPENNYKTTPPVLDSDGSFFLYSKLTVDKSRWQQGNVFSCSVMHEALHNHYTQKSLSLSPGK light: QSALTQPPSASGTPGQRVTISCSGTNSNIGSNYVFWYQQLPGTAPKLLIFESNRRPSGVPDRFSGSKSDTSASLAISGLRSEDEADYYCATWDDTLIAPVFGSGTKVTVLGQPKANPTVTLFPPSSEELQANKATLVCLISDFYPGAVTVAWKADSSPVKAGVETTTPSKQSNNKYAASSYLSLTPEQWKSHRSYSCQVTHEGSTVEKTVAPAEC
